Earlier results, collected in PMC6314896 (Chembiochem : a European journal of chemical biology, 2018).

Test system: trypsin
Conditions: both toxins under the same conditions

Substance | stability to trypsin (in words)
ProTx-II | completely stable
ProTx-I | degraded rapidly
